This experiment addresses LDL receptor (human), on cells (human) (UniProt P01130). Put plainly: cell-based or functional assay.

A value given as a limit tells only on which side of the number the result lay.

The substance “HDL fraction of HCV-infected serum (HCV-HDL)” returned an Endocytosis of 5 µg DiI-labeled fraction, mean fluorescence (log scale) (mean fluorescence (log scale)) of 1.88.
Consider “LDL fraction of HCV-infected serum (HCV-LDL)”, for which the Endocytosis of 5 µg DiI-labeled fraction, mean fluorescence (log scale) (mean fluorescence (log scale)) stood at 9.98.
“VLDL fraction of HCV-infected serum (HCV-VLDL)” registered an Endocytosis of 5 µg DiI-labeled fraction, mean fluorescence (log scale) (mean fluorescence (log scale)) of 8.49.
As to “high density lipoprotein (HDL) from normal serum”, the competitive inhibition of endocytosis of HCV by HepG2, G4 and E11 cells was greater than 200 µg/mL.
“low density lipoprotein (LDL) from normal serum, P04114 1-4563” showed an Uptake of LDL by cultured cells, mean fluorescence (G4, lipoprotein deficient medium, DiI-LDL) (mean fluorescence) of 16; an Uptake of LDL by cultured cells, mean fluorescence (G4, routine medium, DiI-LDL) (mean fluorescence) of 4; an Uptake of LDL by cultured cells, mean fluorescence (HepG2, routine medium, DiI-LDL) (mean fluorescence) of 16.

Values taken from patent US20110229482A1, “Method of inhibiting infection by HCV, other flaviviridae viruses, and any other virus that complexes to low density lipoprotein or to very low density lipoprotein in blood by preventing viral entry into a cell” (priority 2000, published 2011).
